Data from US20100255010A1 (Genentech, published 2010).

Experiments:
[1] = biological target: T1, HER3-ECD-Fc (human, UniProt P21860 20-643, limits assumed); experiment: radioligand blocking assay: antibody pre-bound to captured HER3-ECD-Fc, then 125I-HRG added; bound counts as % of control
T1 construct: extracellular domain; also called HER3-FC; HER3-IgG

[2] = biological target: HER3 (form of the protein in the assay not stated) (UniProt P21860 20-643, limits assumed); experiment: SPR BIAcore

Binder	IC50 (read off the curve) [1] [nM]	binding result [2]
D1.5-115, mIgG2A (antibody, V domains shown) VH: EVQLVESGGGLVQPGGSLRLSCAASGFTFTGNWIHWVRQAPGKGLEWVGEISPSGGYTDYADSVKGRFTISADTSKNTAYLQMNSLRAEDTAVYYCARESRVSYEAAMDYWGQGTLVTVSS VL: DIQMTQSPSSLSASVGDRVTITCRASQEIFPDVAWYQQKPGKAPKLLIYSASSLYSGVPSRFSGSGSGTDFTLTISSLQPEDFATYYCQQAAPTPYTFGQGTKVEIKR	~3	–
D1.5-113, mIgG2A (antibody, V domains shown) VH: EVQLVESGGGLVQPGGSLRLSCAASGFTFTGNWIHWVRQAPGKGLEWVGEISPSGGYTDYADSVKGRFTISADTSKNTAYLQMNSLRAEDTAVYYCARESRVSYEAAMDYWGQGTLVTVSS VL: DIQMTQSPSSLSASVGDRVTITCRASQSLLASHDGTPWVAWYQQKPGKAPKLLIYDASYLYSGVPSRFSGSGSGTDFTLTISSLQPEDFATYYCQQSTFAPYTFGQGTKVEIKR	~3	–
D1.5-121, mIgG2A (antibody, V domains shown) VH: EVQLVESGGGLVQPGGSLRLSCAASGFTFTGNWIHWVRQAPGKGLEWVGEISPSGGYTDYADSVKGRFTISADTSKNTAYLQMNSLRAEDTAVYYCARESRVSYEAAMDYWGQGTLVTVSS VL: DIQMTQSPSSLSASVGDRVTITCRASQDVGSDLAWYQQKPGKAPKLLIYSASYLYSGVPSRFSGSGSGTDFTLTISSLQPEDFATYYCQQSDPEPYTFGQGTKVEIKR	~5	–
D1.5-116, mIgG2A (antibody, V domains shown) VH: EVQLVESGGGLVQPGGSLRLSCAASGFTFTGNWIHWVRQAPGKGLEWVGEISPSGGYTDYADSVKGRFTISADTSKNTAYLQMNSLRAEDTAVYYCARESRVSYEAAMDYWGQGTLVTVSS VL: DIQMTQSPSSLSASVGDRVTITCRASQAIASDVAWYQQKPGKAPKLLIYSASFLYSGVPSRFSGSGSGTDFTLTISSLQPEDFATYYCQQSEPEPYTFGQGTKVEIKR	~4	–
DL11b (bispecific antibody, V domains shown) VH: EVQLVESGGGLVQPGGSLRLSCAASGFTLSGDWIHWVRQAPGKGLEWLGEISAAGGYTDYADSVKGRFTISADTSKNTAYLQMNSLRAEDTAVYYCARESRVSFEAAMDYWGQGTLVTVSS VL: DIQMTQSPSSLSASVGDRVTITCRASQNIATDVAWYQQKPGKAPKLLIYSASFLYSGVPSRFSGSGSGTDFTLTISSLQPEDFATYYCQQSEPEPYTFGQGTKVEIKR	–	binds
